Laboratory results reported in PMC9482650, “Quantitative fragmentomics allow affinity mapping of interactomes” (Nature Communications, 2022).

Key:
Test in all cases: holdup assay
Parameters in all cases: key: below the threshold = too weak to quantify, mostly under pKd 3.1 to 4
ARHGEF12, Q9NZN5-2 = conditions: modified: phosphorylated residue at S732 (position -3 from the C-terminal residue); phosphorylated residue at T734 (position -1 from the C-terminal residue)
HTRA1, Q92743 = conditions: modified: phosphorylated residue at T733 (position -2 from the C-terminal residue); phosphorylated residue at T734 (position -1 from the C-terminal residue)
Sequence of HTRA1, Q92743 (Q92743 365-480): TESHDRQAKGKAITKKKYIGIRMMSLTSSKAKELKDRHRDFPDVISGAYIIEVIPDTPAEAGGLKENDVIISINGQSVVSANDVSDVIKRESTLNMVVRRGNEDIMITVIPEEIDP

MAGI2_2, Q86UL8 = target: MAGI2_2, Q86UL8
Sequence of MAGI2_2, Q86UL8 (Q86UL8 410-522): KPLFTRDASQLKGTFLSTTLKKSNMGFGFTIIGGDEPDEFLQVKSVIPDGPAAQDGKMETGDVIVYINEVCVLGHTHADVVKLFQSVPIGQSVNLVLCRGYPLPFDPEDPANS

MAGI3_2, Q5TCQ9 = conditions: modified: O-phospho-L-serine at S732 (position -3 from the C-terminal residue); O-phospho-L-threonine at T734 (position -1 from the C-terminal residue)
Sequence of MAGI3_2, Q5TCQ9 (Q5TCQ9 398-503): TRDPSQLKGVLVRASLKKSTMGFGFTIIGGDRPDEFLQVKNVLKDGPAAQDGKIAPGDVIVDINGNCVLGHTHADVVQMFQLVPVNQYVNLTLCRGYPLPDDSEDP

MAST2, Q6P0Q8 = target: MAST2, Q6P0Q8
PARD3B_1, Q8TEW8 = target: PARD3B_1, Q8TEW8
PDZD7_3, Q9H5P4 = conditions: modified: phosphorylated residue at S732 (position -3 from the C-terminal residue); phosphorylated residue at T733 (position -2 from the C-terminal residue); phosphorylated residue at T734 (position -1 from the C-terminal residue)
Sequence of PDZD7_3, Q9H5P4 (Q9H5P4 858-953): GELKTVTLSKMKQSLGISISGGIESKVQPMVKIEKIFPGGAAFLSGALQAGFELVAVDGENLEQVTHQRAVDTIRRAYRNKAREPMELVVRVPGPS

PDZRN4_1, Q6ZMN7 = conditions: modified: O-phospho-L-serine at S732 (position -3 from the C-terminal residue); O-phospho-L-threonine at T734 (position -1 from the C-terminal residue)
Sequence of PDZRN4_1, Q6ZMN7 (Q6ZMN7 213-318): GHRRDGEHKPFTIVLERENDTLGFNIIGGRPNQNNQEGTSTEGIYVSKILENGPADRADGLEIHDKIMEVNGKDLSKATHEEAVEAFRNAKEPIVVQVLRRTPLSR

PTPN3, P26045 = conditions: modified: O-phospho-L-serine at S732 (position -3 from the C-terminal residue); O-phospho-L-threonine at T734 (position -1 from the C-terminal residue)
Sequence of PTPN3, P26045 (P26045 505-587): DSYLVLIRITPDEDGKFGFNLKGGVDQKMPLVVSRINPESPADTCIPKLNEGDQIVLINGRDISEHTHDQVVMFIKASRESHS

SCRIB_1, Q14160 = conditions: modified: O-phospho-L-serine at S732 (position -3 from the C-terminal residue); O-phospho-L-threonine at T734 (position -1 from the C-terminal residue)
Sequence of SCRIB_1, Q14160 (Q14160 718-814): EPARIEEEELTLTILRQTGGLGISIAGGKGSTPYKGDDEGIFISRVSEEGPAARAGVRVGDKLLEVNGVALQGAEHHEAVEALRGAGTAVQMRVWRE

SCRIB_3, Q14160 = target: SCRIB_3, Q14160
SNTA1, Q13424 = conditions: modified: O-phospho-L-serine at S732 (position -3 from the C-terminal residue); O-phospho-L-threonine at T734 (position -1 from the C-terminal residue)
Sequence of SNTA1, Q13424 (Q13424 84-171): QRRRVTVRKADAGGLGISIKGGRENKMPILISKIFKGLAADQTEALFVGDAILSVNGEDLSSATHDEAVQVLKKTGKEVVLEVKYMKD

SNTB1, Q13884 = conditions: modified: O-phospho-L-serine at S732 (position -3 from the C-terminal residue); phosphorylated residue at T734 (position -1 from the C-terminal residue)
Sequence of SNTB1, Q13884 (Q13884 107-196): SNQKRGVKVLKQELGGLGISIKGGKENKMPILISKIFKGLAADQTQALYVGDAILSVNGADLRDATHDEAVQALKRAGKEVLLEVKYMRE

SNTG2, Q9NY99 = conditions: modified: phosphorylated residue at S732 (position -3 from the C-terminal residue); phosphorylated residue at T734 (position -1 from the C-terminal residue)
Sequence of SNTG2, Q9NY99 (Q9NY99 70-159): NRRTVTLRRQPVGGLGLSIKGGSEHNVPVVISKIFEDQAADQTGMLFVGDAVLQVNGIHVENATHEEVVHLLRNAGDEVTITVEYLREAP

SNX27, Q96L92 = conditions: modified: phosphorylated residue at S732 (position -3 from the C-terminal residue); phosphorylated residue at T734 (position -1 from the C-terminal residue)
SYNJ2BP, P57105 = target: SYNJ2BP, P57105
DLG1_2, Q12959 = conditions: plain residues with an end cap or a label only (N-terminal biotin on a linker: ado-ado)
Sequence of DLG1_2, Q12959 (Q12959 314-412): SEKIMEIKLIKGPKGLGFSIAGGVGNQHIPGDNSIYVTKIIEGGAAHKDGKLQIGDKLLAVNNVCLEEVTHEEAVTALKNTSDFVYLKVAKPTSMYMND

DLG2_3, Q15700 = conditions: plain residues with an end cap or a label only (N-terminal biotin on a linker: ado-ado)
GRASP, Q7Z6J2 = conditions: plain residues with an end cap or a label only (N-terminal biotin on a linker: ado-ado)
Sequence of GRASP, Q7Z6J2 (Q7Z6J2 96-193): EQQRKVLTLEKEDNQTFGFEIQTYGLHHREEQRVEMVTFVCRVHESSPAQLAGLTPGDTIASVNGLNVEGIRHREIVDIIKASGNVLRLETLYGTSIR

IL16_4, Q14005 = conditions: plain residues with an end cap or a label only (N-terminal biotin on a linker: ado-ado)
Sequence of IL16_4, Q14005 (Q14005 1229-1329): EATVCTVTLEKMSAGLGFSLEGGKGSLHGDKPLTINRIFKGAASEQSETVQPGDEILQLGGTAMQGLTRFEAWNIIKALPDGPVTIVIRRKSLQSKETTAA

LIN7B, Q9HAP6 = target: T1, LIN7B, Q9HAP6; conditions: plain residues with an end cap or a label only (N-terminal biotin on a linker: ado-ado)
T1 sequence (Q9HAP6 88-185, limits assumed, looked up): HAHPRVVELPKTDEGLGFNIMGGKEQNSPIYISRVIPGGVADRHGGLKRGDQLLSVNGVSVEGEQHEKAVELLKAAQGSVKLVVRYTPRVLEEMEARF

MPP6, Q9NZW5 = target: T2, MPP6, Q9NZW5; conditions: plain residues with an end cap or a label only (N-terminal biotin on a linker: ado-ado)
T2 sequence (Q9NZW5 125-219, limits assumed, looked up): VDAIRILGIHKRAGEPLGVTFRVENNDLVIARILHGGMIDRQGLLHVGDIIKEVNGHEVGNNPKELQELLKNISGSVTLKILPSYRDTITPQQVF

NHERF3_1, Q5T2W1 = target: T3, NHERF3_1, Q5T2W1; conditions: plain residues with an end cap or a label only (N-terminal biotin on a linker: ado-ado)
T3 sequence (Q5T2W1 4-100, limits assumed, looked up): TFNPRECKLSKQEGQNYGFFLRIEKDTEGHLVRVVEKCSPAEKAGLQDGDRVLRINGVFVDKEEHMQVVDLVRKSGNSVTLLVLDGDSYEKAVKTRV

NHERF4_4, Q86UT5 = conditions: plain residues with an end cap or a label only (N-terminal biotin on a linker: ado-ado)
Sequence of NHERF4_4, Q86UT5 (Q86UT5 464-550): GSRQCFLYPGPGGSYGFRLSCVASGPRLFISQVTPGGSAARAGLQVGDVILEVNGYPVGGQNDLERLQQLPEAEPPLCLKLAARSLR

APBA2_1, Q99767 = conditions: plain residues with an end cap or a label only
Sequence of APBA2_1, Q99767 (Q99767 565-653): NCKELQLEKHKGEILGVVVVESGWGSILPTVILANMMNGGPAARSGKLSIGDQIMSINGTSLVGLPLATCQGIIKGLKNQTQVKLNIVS

AHNAK1, Q09666 = conditions: plain residues with an end cap or a label only
Sequence of AHNAK1, Q09666 (Q09666 2-98): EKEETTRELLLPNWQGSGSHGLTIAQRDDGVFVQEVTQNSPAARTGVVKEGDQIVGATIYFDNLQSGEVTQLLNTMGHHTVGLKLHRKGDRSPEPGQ

FRMPD4, Q14CM0 = conditions: plain residues with an end cap or a label only (N-terminal biotin on a linker: ado-ado)
Sequence of FRMPD4, Q14CM0 (Q14CM0 67-160): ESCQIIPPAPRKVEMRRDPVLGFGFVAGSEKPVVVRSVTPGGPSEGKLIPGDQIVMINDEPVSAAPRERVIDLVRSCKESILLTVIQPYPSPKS

MAGI2_4, Q86UL8 = conditions: plain residues with an end cap or a label only (N-terminal biotin on a linker: ado-ado)
Sequence of MAGI2_4, Q86UL8 (Q86UL8 772-865): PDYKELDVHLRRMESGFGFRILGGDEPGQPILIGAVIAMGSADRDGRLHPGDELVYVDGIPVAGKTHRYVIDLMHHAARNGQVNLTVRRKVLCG

NHERF4_2, Q86UT5 = conditions: plain residues with an end cap or a label only (N-terminal biotin on a linker: ado-ado)
Sequence of NHERF4_2, Q86UT5 (Q86UT5 220-308): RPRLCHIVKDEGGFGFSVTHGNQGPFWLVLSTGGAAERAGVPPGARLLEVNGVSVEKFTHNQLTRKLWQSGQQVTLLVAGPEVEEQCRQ

PARD3_3, Q8TEW0 = conditions: plain residues with an end cap or a label only (N-terminal biotin on a linker: ado-ado)
Sequence of PARD3_3, Q8TEW0 (Q8TEW0 582-685): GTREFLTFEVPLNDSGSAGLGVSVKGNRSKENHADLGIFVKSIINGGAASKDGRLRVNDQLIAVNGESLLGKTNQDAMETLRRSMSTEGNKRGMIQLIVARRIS

APBA1_1, Q02410 = conditions: plain residues with an end cap or a label only
Sequence of APBA1_1, Q02410 (Q02410 other isoform, or with tags, fused parts or gaps): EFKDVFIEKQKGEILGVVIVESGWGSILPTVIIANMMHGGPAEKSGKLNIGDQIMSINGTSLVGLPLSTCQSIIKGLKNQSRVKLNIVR

APBA1_2, Q02410 = conditions: plain residues with an end cap or a label only
Sequence of APBA1_2, Q02410 (Q02410 742-822): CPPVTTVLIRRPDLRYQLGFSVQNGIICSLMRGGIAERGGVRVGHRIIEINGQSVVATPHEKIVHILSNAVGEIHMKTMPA

[1] = modified: O-phospho-L-serine at S732 (position -3 from the C-terminal residue), O-phospho-L-threonine at T734 (position -1 from the C-terminal residue)
[2] = plain residues with an end cap or a label only (N-terminal biotin on a linker: ado-ado)

Sequence of ARHGEF12, Q9NZN5-2 (Q9NZN5 other isoform, or with tags, fused parts or gaps): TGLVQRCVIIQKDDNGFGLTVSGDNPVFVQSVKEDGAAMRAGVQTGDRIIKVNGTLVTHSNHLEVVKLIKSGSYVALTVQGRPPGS

B1: a stretch of Q15418, Q15418 (peptide)
chain: RVRKLPSTTL
For B1, the pKd (ARHGEF12, Q9NZN5-2) was “below the threshold”, the pKd (HTRA1, Q92743) was “below the threshold” and the pKd (MAGI2_2, Q86UL8; modified: O-phospho-L-threonine at T734 (position -1 from the C-terminal residue), phosphorylated residue at S732 (position -3 from the C-terminal residue)) was “below the threshold”. For the same binder, the pKd (MAGI3_2, Q5TCQ9) was “below the threshold”, the pKd (MAST2, Q6P0Q8; [1]) was “below the threshold” and the pKd (PARD3B_1, Q8TEW8; modified: phosphorylated residue at S732 (position -3 from the C-terminal residue), phosphorylated residue at T733 (position -2 from the C-terminal residue), phosphorylated residue at T734 (position -1 from the C-terminal residue)) was “below the threshold”. The pKd (PDZD7_3, Q9H5P4) was “below the threshold”, the pKd (PDZRN4_1, Q6ZMN7) was “below the threshold” and the pKd (PTPN3, P26045) was “below the threshold”. The pKd (SCRIB_1, Q14160) was “below the threshold”, the pKd (SCRIB_3, Q14160; [1]) was “below the threshold” and the pKd (SNTA1, Q13424) was “below the threshold”. The pKd (SNTB1, Q13884) was “below the threshold”, the pKd (SNTG2, Q9NY99) was “below the threshold” and the pKd (SNX27, Q96L92) was “below the threshold”. For the same binder, the pKd (SYNJ2BP, P57105; [1]) was “below the threshold”.

B2: HNRNPK, P61978 (peptide)
chain: VKQYADVEGF
For B2, the pKd (DLG1_2, Q12959) was 3.72, the pKd (DLG2_3, Q15700) was 3.55 and the pKd (GRASP, Q7Z6J2) was 3.76. It also gave a pKd (IL16_4, Q14005) of 3.51, a pKd (LIN7B, Q9HAP6) of 3.61 and a pKd (MAGI2_2, Q86UL8; [2]) of 3.56. It also gave a pKd (MAST2, Q6P0Q8; [2]) of 3.87, a pKd (MPP6, Q9NZW5) of 3.7 and a pKd (NHERF3_1, Q5T2W1) of 3.53. For the same binder, the pKd (NHERF4_4, Q86UT5) was 3.72.

B3: a stretch of P69706, P69706 (peptide)
chain: RRSQSRESQC
In the case of B3, the pKd (APBA2_1, Q99767) is reported as “below the threshold”.

B4: a stretch of P03146, P03146 (peptide)
chain: RRSQSRESQC
In the case of B4, the pKd (AHNAK1, Q09666) is reported as “below the threshold”.

B5: PALLS, Q8WX93 (peptide)
chain: NTALVESEDL
For B5, the pKd (FRMPD4, Q14CM0) was 3.65, the pKd (IL16_4, Q14005) was 3.57 and the pKd (MAGI2_4, Q86UL8) was 3.59. The pKd (NHERF4_2, Q86UT5) was 3.48, the pKd (PARD3B_1, Q8TEW8; [2]) was 3.58 and the pKd (PARD3_3, Q8TEW0) was 3.61. The pKd (SCRIB_3, Q14160; [2]) was 3.73 and the pKd (SYNJ2BP, P57105; [2]) was 3.49.

B6: a stretch of P03148, P03148 (peptide)
chain: RRSQSRESQC
With B6 the pKd (APBA1_1, Q02410) was “below the threshold”.

B7: a stretch of P03149, P03149 (peptide)
chain: RRSQSRESQC
In the case of B7, the pKd (APBA1_2, Q02410) is reported as “below the threshold”.
